Where two headings read alike, the source gives them in different places.
Experiments:
Assay in all cases: cryo-EM structure
[1] = target: major capsid protein gp23* (cleaved form of gp23) of bacteriophage T4 (bacteriophage T4)
[2] = target: the molecule itself
[3] = target: the molecule itself; remark: listed apart in the source

major capsid protein gp23* (cleaved form of gp23) of bacteriophage T4 (natural protein)
stoichiometry N [1]: 6

B1: Soc (small outer capsid protein) of bacteriophage T4 (natural protein, UniProt P03715 1-80, looked up)
chain: MASTRGYVNIKTFEQKLDGNKKIEGKEISVAFPLYSDVHKISGAHYQTFPSEKAAYSTVYEENQRTEWIAANEDLWKVTG
stoichiometry N [2]: 3

B2: vertex protein gp24* (cleaved form of gp24) of bacteriophage T4 (natural protein, UniProt P19896 11-427, looked up)
chain: STTTNSNSIGRPNLVALTRATTKLIYSDIVATQRTNQPVAAFYGIKYLNPDNEFTFKTGATYAGEAGYVDREQITELTEESKLTLNKGDLFKYNNIVYKVLEDTPFATIEESDLELALQIAIVLLKVRLFSDAASTSKFESSDSEIADARFQINKWQTAVKSRKLKTGITVELAQDLEANGFDAPNFLEDLLATEMADEINKDILQSLITVSKRYKVTGITDSGFIDLSYASAPEAGRSLYRMVCEMVSHIQKESTYTATFCVASARAAAILAASGWLKHKPEDDKYLSQNAYGFLANGLPLYCDTNSPLDYVIVGVVENIGEKEIVGSIFYAPYTEGLDLDDPEHVGAFKVVVDPESLQPSIGLLVRYALSANPYTVAKDEKEARIIDGGDMDKMAGRSDLSVLLGVKLPKIIIDE
stoichiometry N [3]: 5

— PMC9546572 (Proceedings of the National Academy of Sciences of the …, 2022)
